Results taken from publication PMC2731897.

Target: T1, Mycobacterium tuberculosis GroEL1 (Rv3417c) without (His)6 tag (Mycobacterium tuberculosis), P9WPE9
T1 chain: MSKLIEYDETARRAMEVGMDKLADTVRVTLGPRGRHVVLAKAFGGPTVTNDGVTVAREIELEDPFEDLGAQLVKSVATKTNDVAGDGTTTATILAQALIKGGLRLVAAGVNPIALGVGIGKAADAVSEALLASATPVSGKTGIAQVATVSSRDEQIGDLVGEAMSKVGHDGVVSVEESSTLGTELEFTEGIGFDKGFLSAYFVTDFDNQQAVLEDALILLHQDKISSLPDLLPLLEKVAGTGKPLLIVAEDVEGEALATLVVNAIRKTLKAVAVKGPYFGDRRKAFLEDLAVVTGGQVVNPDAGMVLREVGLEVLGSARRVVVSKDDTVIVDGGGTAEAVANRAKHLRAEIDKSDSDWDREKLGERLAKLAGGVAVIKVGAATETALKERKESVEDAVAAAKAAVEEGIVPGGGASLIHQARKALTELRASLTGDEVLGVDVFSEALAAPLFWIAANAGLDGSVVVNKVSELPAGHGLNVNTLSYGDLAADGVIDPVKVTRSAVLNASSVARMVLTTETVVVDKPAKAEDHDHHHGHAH
Assay: SEC
Settings: remark: other sources report otherwise

B1: Mycobacterium tuberculosis GroEL1 (Rv3417c) without (His)6 tag, P9WPE9 1-539 (natural protein)
chain: MSKLIEYDETARRAMEVGMDKLADTVRVTLGPRGRHVVLAKAFGGPTVTNDGVTVAREIELEDPFEDLGAQLVKSVATKTNDVAGDGTTTATILAQALIKGGLRLVAAGVNPIALGVGIGKAADAVSEALLASATPVSGKTGIAQVATVSSRDEQIGDLVGEAMSKVGHDGVVSVEESSTLGTELEFTEGIGFDKGFLSAYFVTDFDNQQAVLEDALILLHQDKISSLPDLLPLLEKVAGTGKPLLIVAEDVEGEALATLVVNAIRKTLKAVAVKGPYFGDRRKAFLEDLAVVTGGQVVNPDAGMVLREVGLEVLGSARRVVVSKDDTVIVDGGGTAEAVANRAKHLRAEIDKSDSDWDREKLGERLAKLAGGVAVIKVGAATETALKERKESVEDAVAAAKAAVEEGIVPGGGASLIHQARKALTELRASLTGDEVLGVDVFSEALAAPLFWIAANAGLDGSVVVNKVSELPAGHGLNVNTLSYGDLAADGVIDPVKVTRSAVLNASSVARMVLTTETVVVDKPAKAEDHDHHHGHAH
Binder B1 has a stoichiometry N of 2.
